Reverse-splicing fitness data for 15 variants are collected here from the RNAGym collection of RNA variant scans (doi:10.1093/molbev/msab373).

B1: Azoarcus group I ribozyme (parent)
chain: GUGCCUUGCGCCGGGAAACCACGCAAGGGAUGGUGUCAAAUUCGGCGAAACCUAAGCGCCCGCCCGGGCGUAUGGCAACGCCGAGCCAAGCUUCGGCGCCUGCGCCGAUGAAGGUGUAGAGACUAGACGGCACCCACCUAAGGCAAACGCUAUGGUGAAGGCAUAGUCCAGGGAGUGGCGAAAGUCACACAAACCGG

This data set covers variants of B1. Description: reverse-splicing fitness (ratio to wild type); higher = more active; in vitro selection; Mg2+ level not given. The method, boiled down: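 An in vitro group I ribozyme library with randomized positions was T7-transcribed and gel-purified. In triplicate, 10 pmol RNA in EPPS pH 7.5 was reacted with 50 pmoles of a 30-nt RNA substrate for 1 h at 37 °C across several added MgCl2 levels (1–48 mM), then stopped with EDTA. Products were reverse transcribed from a substrate-complementary primer, PCR-amplified and sequenced (HiSeq 4000). Fitness is a variant's read proportion after selection over that before, normalised to wild type.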
Consider GUGCCUUGCGCCGGGAAACCACGCAAGGGAUGGUGUCAAAUUCGGCGAAACCUAAGCGCCCGCCCGGGCGUAUGGCAACGCAGAGCCAAGCUUCGGCGCCUGCGCCGAUGAAGGUGUAGGGACUAGACGGCACCCACCUAAGGCAAACGUUAUGGUGAAGGCAUAGUCUAGGGAGUGGCGAAAGUCACACAAACCGG [C82A A120G C150U C169U], for which the reverse-splicing fitness is 0.0111.
With GUGCCUUGCGCCGGGAAACCACGCAAGGGAUGGUGUCAAAUUCGGCGAAACCUAAGCGCCCGCCCGGGCGUAUGGCAACGCAGAGCCAAGCUUCGGCGCCUGCGCCGAUGAAGGUGUAGGGACUAGACGGCACCCACCUAAGGCAAACGUUAUGGUGAAGGCAUAGUCGAGGGAGUGGCGAAAGUCACACAAACCGG [C82A A120G C150U C169G] the figure was 0.0157.
With GUGCCUUGCGCCGGGAAACCACGCAAGGGAUGGUGUCAAAUUCGGCGAAACCUAAGCGCCCGCCCGGGCGUAUGGCAACGCAGAGCCAAGCUUCGGCGCCUGCGCCGAUGAAGGUGUAGGGACUAGACGGCACCCACCUAAGGCAAACGUUAUGGUGAAGGCAUAGUCAAGGGAGUGGCGAAAGUCACACAAACCGG [C82A A120G C150U C169A] the figure was 0.0136.
On to GUGCCUUGCGCCGGGAAACCACGCAAGGGAUGGUGUCAAAUUCGGCGAAACCUAAGCGCCCGCCCGGGCGUAUGGCAACGCAGAGCCAAGCUUCGGCGCCUGCGCCGAUGAAGGUGUAGGGACUAGACGGCACCCACCUAAGGCAAACGUUAUGGUGAAGGCAUAGUCCAGGGAGUGGCGAAAGUCACACAAACCGG [C82A A120G C150U], for which the reverse-splicing fitness is 0.0158.
The value for GUGCCUUGCGCCGGGAAACCACGCAAGGGAUGGUGUCAAAUUCGGCGAAACCUAAGCGCCCGCCCGGGCGUAUGGCAACGCAGAGCCAAGCUUCGGCGCCUGCGCCGAUGAAGGUGUAGGGACUAGACGGCACCCACCUAAGGCAAACGGUAUGGUGAAGGCAUAGUCCAGGGAGUGGCGAAAGUCACACAAACCGG [C82A A120G C150G] was 0.00747; that for GUGCCUUGCGCCGGGAAACCACGCAAGGGAUGGUGUCAAAUUCGGCGAAACCUAAGCGCCCGCCCGGGCGUAUGGCAACGCAGAGCCAAGCUUCGGCGCCUGCGCCGAUGAAGGUGUAGGGACUAGACGGCACCCACCUAAGGCAAACGGUAUGGUGAAGGCAUAGUCGAGGGAGAGGCGAAAGUCACACAAACCGG [C82A A120G C150G C169G U176A] was 0.00669; that for GUGCCUUGCGCCGGGAAACCACGCAAGGGAUGGUGUCAAAUUCGGCGAAACCUAAGCGCCCGCCCGGGCGUAUGGCAACGCAGAGCCAAGCUUCGGCGCCUGCGCCGAUGAAGGUGUAGGGACUAGACGGCACCCACCUAAGGCAAACGGUAUGGUGAAGGCAUAGUCGAGGGAGGGGCGAAAGUCACACAAACCGG [C82A A120G C150G C169G U176G] was 0.00432.
For GUGCCUUGCGCCGGGAAACCACGCAAGGGAUGGUGUCAAAUUCGGCGAAACCUAAGCGCCCGCCCGGGCGUAUGGCAACGCAGAGCCAAGCUUCGGCGCCUGCGCCGAUGAAGGUGUAGGGACUAGACGGCACCCACCUAAGGCAAACGGUAUGGUGAAGGCAUAGUCGAGGGAGCGGCGAAAGUCACACAAACCGG [C82A A120G C150G C169G U176C], the reverse-splicing fitness was 0.00462.
Regarding GUGCCUUGCGCCGGGAAACCACGCAAGGGAUGGUGUCAAAUUCGGCGAAACCUAAGCGCCCGCCCGGGCGUAUGGCAACGCAGAGCCAAGCUUCGGCGCCUGCGCCGAUGAAGGUGUAGGGACUAGACGGCACCCACCUAAGGCAAACGGUAUGGUGAAGGCAUAGUCUAGGGAGCGGCGAAAGUCACACAAACCGG [C82A A120G C150G C169U U176C], the reverse-splicing fitness is 0.0133.
The value for GUGCCUUGCGCCGGGAAACCACGCAAGGGAUGGUGUCAAAUUCGGCGAAACCUAAGCGCCCGCCCGGGCGUAUGGCAACGCAGAGCCAAGCUUCGGCGCCUGCGCCGAUGAAGGUGUAGGGACUAGACGGCACCCACCUAAGGCAAACGGUAUGGUGAAGGCAUAGUCUAGGGAGGGGCGAAAGUCACACAAACCGG [C82A A120G C150G C169U U176G] was 0.00654.
With GUGCCUUGCGCCGGGAAACCACGCAAGGGAUGGUGUCAAAUUCGGCGAAACCUAAGCGCCCGCCCGGGCGUAUGGCAACGCAGAGCCAAGCUUCGGCGCCUGCGCCGAUGAAGGUGUAGGGACUAGACGGCACCCACCUAAGGCAAACGGUAUGGUGAAGGCAUAGUCUAGGGAGAGGCGAAAGUCACACAAACCGG [C82A A120G C150G C169U U176A] the figure was 0.0119.
With GUGCCUUGCGCCGGGAAACCACGCAAGGGAUGGUGUCAAAUUCGGCGAAACCUAAGCGCCCGCCCGGGCGUAUGGCAACGCAGAGCCAAGCUUCGGCGCCUGCGCCGAUGAAGGUGUAGGGACUAGACGGCACCCACCUAAGGCAAACGUUAUGGUGAAGGCAUAGUCAAGGGAGCGGCGAAAGUCACACAAACCGG [C82A A120G C150U C169A U176C] the figure was 0.0163.
As to GUGCCUUGCGCCGGGAAACCACGCAAGGGAUGGUGUCAAAUUCGGCGAAACCUAAGCGCCCGCCCGGGCGUAUGGCAACGCAGAGCCAAGCUUCGGCGCCUGCGCCGAUGAAGGUGUAGGGACUAGACGGCACCCACCUAAGGCAAACGUUAUGGUGAAGGCAUAGUCAAGGGAGAGGCGAAAGUCACACAAACCGG [C82A A120G C150U C169A U176A], the reverse-splicing fitness came out at 0.0169.
The value for GUGCCUUGCGCCGGGAAACCACGCAAGGGAUGGUGUCAAAUUCGGCGAAACCUAAGCGCCCGCCCGGGCGUAUGGCAACGCAGAGCCAAGCUUCGGCGCCUGCGCCGAUGAAGGUGUAGGGACUAGACGGCACCCACCUAAGGCAAACGUUAUGGUGAAGGCAUAGUCAAGGGAGGGGCGAAAGUCACACAAACCGG [C82A A120G C150U C169A U176G] was 0.00471; that for GUGCCUUGCGCCGGGAAACCACGCAAGGGAUGGUGUCAAAUUCGGCGAAACCUAAGCGCCCGCCCGGGCGUAUGGCAACGCAGAGCCAAGCUUCGGCGCCUGCGCCGAUGAAGGUGUAGGGACUAGACGGCACCCACCUAAGGCAAACGGUAUGGUGAAGGCAUAGUCCAGGGAGGGGCGAAAGUCACACAAACCGG [C82A A120G C150G U176G] was 0.00336.
